From patent publication US20150056222A1 (Regeneron, published 2015)
Numbering of substitutions follows the chain as printed. Numbers in names are those of the source. Values belong to the binder of their own block, whether it stands above or below them.

Columns and labels:
[1] = molecular target: T1, human prolactin receptor (PRLR) on cells (human, UniProt P16471 25-622); assay: FACS, T47D cells (native PRLR); also: test concentration or dose not given here
T1 construct: T47D, T47D#11 and MCF7 carry the endogenous receptor; also called hPRLR; HEK293/hPRLR
T1 sequence: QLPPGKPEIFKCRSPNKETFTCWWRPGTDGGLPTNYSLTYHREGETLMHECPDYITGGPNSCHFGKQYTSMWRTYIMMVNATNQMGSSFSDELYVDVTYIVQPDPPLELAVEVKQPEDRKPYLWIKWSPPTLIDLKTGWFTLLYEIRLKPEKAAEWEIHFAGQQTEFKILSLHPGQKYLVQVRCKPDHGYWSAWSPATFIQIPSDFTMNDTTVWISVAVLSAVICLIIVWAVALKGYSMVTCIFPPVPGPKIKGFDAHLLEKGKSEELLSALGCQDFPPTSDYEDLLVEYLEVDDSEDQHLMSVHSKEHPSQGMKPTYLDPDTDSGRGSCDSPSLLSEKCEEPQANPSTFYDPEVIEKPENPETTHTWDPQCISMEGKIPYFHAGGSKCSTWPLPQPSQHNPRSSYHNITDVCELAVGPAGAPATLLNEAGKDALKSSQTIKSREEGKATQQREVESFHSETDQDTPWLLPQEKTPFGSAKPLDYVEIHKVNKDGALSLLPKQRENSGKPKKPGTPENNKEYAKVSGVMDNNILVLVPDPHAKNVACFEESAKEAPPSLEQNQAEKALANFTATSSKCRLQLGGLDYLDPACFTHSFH

[2] = molecular target: T2, mouse PRLR on HEK293 cells (mouse, UniProt Q08501 20-608); assay: FACS, HEK293/mPRLR cells; also: test concentration or dose not given here
T2 construct: whole, on cells; also called mPRLR; HEK293/mPRLR
T2 sequence (looked up): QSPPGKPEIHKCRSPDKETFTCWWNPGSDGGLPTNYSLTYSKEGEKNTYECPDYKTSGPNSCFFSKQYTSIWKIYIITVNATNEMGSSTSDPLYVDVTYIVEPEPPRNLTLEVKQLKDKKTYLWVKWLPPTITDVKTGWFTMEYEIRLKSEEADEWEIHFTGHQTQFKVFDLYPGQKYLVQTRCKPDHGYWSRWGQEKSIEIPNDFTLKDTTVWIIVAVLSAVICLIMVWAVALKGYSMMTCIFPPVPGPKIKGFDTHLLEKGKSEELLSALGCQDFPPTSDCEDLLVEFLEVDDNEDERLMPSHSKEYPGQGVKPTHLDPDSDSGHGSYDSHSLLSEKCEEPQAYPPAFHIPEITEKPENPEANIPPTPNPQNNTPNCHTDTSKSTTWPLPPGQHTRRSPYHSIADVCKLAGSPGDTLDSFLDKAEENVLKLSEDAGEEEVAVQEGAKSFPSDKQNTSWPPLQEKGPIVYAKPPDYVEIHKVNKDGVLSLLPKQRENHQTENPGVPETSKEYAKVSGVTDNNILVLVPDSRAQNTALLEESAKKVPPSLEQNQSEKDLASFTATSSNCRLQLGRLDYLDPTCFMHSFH

[3] = molecular target: T3, monkey (macaca fascicularis) PRLR on HEK293 cells (macaca fascicularis, UniProt A0A2K5WXK1 25-619); assay: FACS, HEK293/mfPRLR cells; also: test concentration or dose not given here
T3 construct: also called mfPRLR; HEK293/mfPRLR
T3 sequence: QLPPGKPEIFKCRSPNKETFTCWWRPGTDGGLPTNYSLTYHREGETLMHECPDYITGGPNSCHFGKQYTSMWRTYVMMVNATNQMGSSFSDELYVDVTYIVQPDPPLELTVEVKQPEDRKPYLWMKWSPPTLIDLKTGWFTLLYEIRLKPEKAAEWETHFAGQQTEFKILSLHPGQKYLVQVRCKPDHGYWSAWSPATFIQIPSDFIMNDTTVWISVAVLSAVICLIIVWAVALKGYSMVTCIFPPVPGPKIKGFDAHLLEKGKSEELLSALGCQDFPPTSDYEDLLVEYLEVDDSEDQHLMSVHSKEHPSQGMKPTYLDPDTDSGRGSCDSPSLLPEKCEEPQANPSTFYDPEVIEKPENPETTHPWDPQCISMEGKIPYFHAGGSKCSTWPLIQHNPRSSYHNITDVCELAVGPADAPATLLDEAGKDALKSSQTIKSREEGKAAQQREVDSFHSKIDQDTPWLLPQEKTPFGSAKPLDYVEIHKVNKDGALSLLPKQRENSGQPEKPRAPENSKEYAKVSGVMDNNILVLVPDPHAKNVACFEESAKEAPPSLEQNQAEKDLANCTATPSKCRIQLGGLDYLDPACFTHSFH

[4] = molecular target: T1, human prolactin receptor (PRLR) on cells; assay: cell-based or functional assay
[5] = molecular target: T1, human prolactin receptor (PRLR) on cells; assay: FACS, HEK293/hPRLR cells; also: test concentration or dose not given here
[6] = molecular target: T4, hPRLR.mmh (soluble monomeric human PRLR) (human); assay: SPR, 37C, mAb capture
T4 construct: soluble monomeric construct
T4 chain: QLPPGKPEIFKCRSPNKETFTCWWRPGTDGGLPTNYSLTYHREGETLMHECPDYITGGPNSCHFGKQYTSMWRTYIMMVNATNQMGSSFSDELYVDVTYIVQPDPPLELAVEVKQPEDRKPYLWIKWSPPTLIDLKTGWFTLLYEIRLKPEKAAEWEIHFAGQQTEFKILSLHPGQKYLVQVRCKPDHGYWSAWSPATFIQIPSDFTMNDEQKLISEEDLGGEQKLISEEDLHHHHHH
Description: (§1) Measurements were conducted on a T200 Biacore instrument. Kinetic association (kₐ) and dissociation (kd) rate constants were determined by processing and fitting the data to a 1:1 binding model using Scrubber 2.0 curve fitting software. Binding dissociation equilibrium constants (KD) and dissociative half-lives (t_{1/2}) were calculated from the kinetic rate constants as: KD (M)=kd/kₐ; and […].

[7] = molecular target: T5, hPRLR.mFc (soluble dimeric human PRLR) (human); assay: SPR, 37C, mAb capture
T5 construct: dimeric construct
T5 chain: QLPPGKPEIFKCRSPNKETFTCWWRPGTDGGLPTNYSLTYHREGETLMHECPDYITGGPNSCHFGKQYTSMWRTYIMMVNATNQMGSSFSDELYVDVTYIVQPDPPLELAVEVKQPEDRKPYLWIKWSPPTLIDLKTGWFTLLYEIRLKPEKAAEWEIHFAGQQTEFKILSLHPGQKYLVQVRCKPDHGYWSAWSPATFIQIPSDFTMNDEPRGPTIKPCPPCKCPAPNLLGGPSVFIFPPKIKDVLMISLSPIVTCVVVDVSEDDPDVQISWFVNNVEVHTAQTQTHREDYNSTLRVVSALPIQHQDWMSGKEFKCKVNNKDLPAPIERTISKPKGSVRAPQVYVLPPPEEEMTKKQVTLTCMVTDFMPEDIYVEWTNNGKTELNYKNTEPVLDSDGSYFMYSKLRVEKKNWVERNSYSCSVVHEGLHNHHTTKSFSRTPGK
Description: as §1

[8] = molecular target: T6, mfPRLR.mmh (soluble monomeric macaca fascicularis PRLR) (macaca fascicularis); assay: SPR, 37C, mAb capture
T6 construct: soluble monomeric construct; also called macaca fascicularis (mf) PRLR.mmh
T6 chain: T4 chain with I76V, A110T, I125M, I158T, T207I
Description: as §1

FACS Cell Binding (Fold Above Background) [1]: 40 fold above background
FACS Cell Binding (Fold Above Background) [2]: 2 fold above background
FACS Cell Binding (Fold Above Background) [3]: 29 fold above background
% Internalization relative to Control I (alexa488 intensity in intracellular vesicles at 37 C, T47D cells) [4]: 154%
FACS Cell Binding (Fold Above Background) [5]: 37 fold above background
T½ [6]: 9.4 min
T½ [7]: 68 min
T½ [8]: 4.5 min
B1: H1H6953N (antibody, human IgG1, V domains shown)
VH: EVQLLESGGGLVQPGGTLRLSCAASGFTFSAYAMSWVRQAPGKGLEWVSSINVRAGDTYYADSVKGRFTISRDNSKNTLFLLMNSLRAEDTAAYYCAKARYSSNWGFDFWGQGTLVTVSS
VL: DIVMTQSPDSLTVSLGARTTINCQSSQTILHSSNNHNYLAWYQQKPGLPPKLLIYWSSTRESGVPDRFSGSGSGTDFTLTISSLQAEDVAIYYCQQYSNTPYTFGQGTKLEIN
notes: also called H1M6953N

FACS Cell Binding (Fold Above Background) [1]: 40 fold above background
FACS Cell Binding (Fold Above Background) [2]: 1 fold above background
FACS Cell Binding (Fold Above Background) [3]: 26 fold above background
% Internalization relative to Control I (alexa488 intensity in intracellular vesicles at 37 C, T47D cells) [4]: 165%
FACS Cell Binding (Fold Above Background) [5]: 37 fold above background
T½ [6]: 37 min
T½ [7]: 117 min
T½ [8]: 43 min
B2: H1H6781P (antibody, human IgG1, V domains shown)
VH: EVQLVESGGDLVQPGESLRLSCTASGFTFNSYEMNWVRQAPGKGLEWVSYISSSGGTKYYVDSVKGRFTISRDNAKKSLYLQMNSLRADDTALYYCARLNGVDVFDIWGQGTMVTVSS
VL: DIQMTQSPSSLSASVGDRVTITCRASQDIFNYLAWFQQKPGKVPELLISAASTLQSGVPSRFSGSGSGTYFTLTISSLQPEDIATYYCQRYNSAPLTFGGGTKVEIK
notes: human IgG1 Fc (H1H)

FACS Cell Binding (Fold Above Background) [1]: 38 fold above background
FACS Cell Binding (Fold Above Background) [2]: 1 fold above background
FACS Cell Binding (Fold Above Background) [3]: 27 fold above background
% Internalization relative to Control I (alexa488 intensity in intracellular vesicles at 37 C, T47D cells) [4]: 161%
FACS Cell Binding (Fold Above Background) [5]: 37 fold above background
T½ [6]: 7 min
T½ [7]: 83 min
T½ [8]: 9 min
B3: H1H6783P (antibody, human IgG1, V domains shown)
VH: QVQLQQSGPGLVKPSQTLSLTCAISGDSVSSNTFAWNWIRQSPSRGLEWLGRTYYRSKWYIDYAESVKSRITITPDTSKNQFSLQLNSVTPEDTALYYCAGGYTYAPRGAFDIWGQGTMVTVSS
VL: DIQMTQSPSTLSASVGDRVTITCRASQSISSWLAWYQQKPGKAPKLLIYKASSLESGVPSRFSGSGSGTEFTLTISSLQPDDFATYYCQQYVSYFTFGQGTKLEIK
notes: human IgG1 Fc (H1H)

FACS Cell Binding (Fold Above Background) [1]: 39 fold above background
FACS Cell Binding (Fold Above Background) [2]: 1 fold above background
FACS Cell Binding (Fold Above Background) [3]: 29 fold above background
% Internalization relative to Control I (alexa488 intensity in intracellular vesicles at 37 C, T47D cells) [4]: 162%
FACS Cell Binding (Fold Above Background) [5]: 1 fold above background
T½ [6]: 4 min
T½ [7]: 60 min
T½ [8]: 3 min
B4: H1H6774P (antibody, human IgG1, V domains shown)
VH: EVQLVESGGGLAQPGGSLRLSCVASGFTFSTYWMSWVRQAPGKGLDWVGNIKQDGSEQNYVDSVRGRFTISRDNAKNSLFLQMNSLRAEDTGVYYCATLLTKGDYWGQGTLVTVSS
VL: DIQMTQSPSSLSASVGDSVTITCRASQDISNYLDWFQQKPGKAPKSLIYAASILQGGVPSRFSGSGYGTDFTLTISSLQPEDFATYYCRQYKTYPFTFGPGTKVDIK
notes: human IgG1 Fc (H1H)

FACS Cell Binding (Fold Above Background) [1]: 37 fold above background
FACS Cell Binding (Fold Above Background) [2]: 3 fold above background
FACS Cell Binding (Fold Above Background) [3]: 28 fold above background
% Internalization relative to Control I (alexa488 intensity in intracellular vesicles at 37 C, T47D cells) [4]: 156%
FACS Cell Binding (Fold Above Background) [5]: 37 fold above background
T½ [6]: 5 min
T½ [7]: 66 min
T½ [8]: 4 min
B5: H1H6792P (antibody, human IgG1, V domains shown)
VH: EVQLVESGGGLVQPGRSLRLSCAASGFTLDDHAVHWVRQAPGKGLEWVSGISWNSVYIDYADSVKGRFTIFRDNAKNSLYLQMNSLRAEDTAFYYCARDIEGARDYWGQGTLVTVSS
VL: DIQMTQSPSSLSASVGDRVTITCRASQGIRNDLGWYQQKPGKAPKRLIYAASSLQSGVPSRFSGSGYGTEFTLTISSLQPEDFAPYYCLQHNSYPLTFGGGTKVEIK
notes: human IgG1 Fc (H1H)

FACS Cell Binding (Fold Above Background) [1]: 34 fold above background
FACS Cell Binding (Fold Above Background) [2]: 1 fold above background
FACS Cell Binding (Fold Above Background) [3]: 22 fold above background
% Internalization relative to Control I (alexa488 intensity in intracellular vesicles at 37 C, T47D cells) [4]: 151%
FACS Cell Binding (Fold Above Background) [5]: 1 fold above background
T½ [6]: 2 min
T½ [7]: 149 min
T½ [8]: 2 min
B6: H1H6795P (antibody, human IgG1, V domains shown)
VH: QVQLVQSGAEVKKPGASVKVSCKASGYTFGTSGITWVRQAPGQGLEWMGWSSAYNGKTDYAQKFQDRVTMTTDTSTTTGYMEMRSLTSDDTAVYYCTTVVRRPFDFWGQGTLVTVSS
VL: DIQMTQSPSSLSASVGDRVTITCRASQDINNFLAWFQQKPGKAPKSLIYAASSLQSGVPSKFSGGGSGTDFALTISSLQPEDFATYYCQQYSSYPITFGQGTRLEIK
notes: human IgG1 Fc (H1H)

FACS Cell Binding (Fold Above Background) [1]: 41 fold above background
FACS Cell Binding (Fold Above Background) [2]: 2 fold above background
FACS Cell Binding (Fold Above Background) [3]: 28 fold above background
% Internalization relative to Control I (alexa488 intensity in intracellular vesicles at 37 C, T47D cells) [4]: 169%
FACS Cell Binding (Fold Above Background) [5]: 38 fold above background
T½ [6]: 12.4 min
T½ [7]: 119 min
T½ [8]: 7.1 min
B7: H1H6967N (antibody, human IgG1, V domains shown)
VH: EVQLVESGGDLVHPGRSLRLSCAASGFPFDEYAMHWVRQVPGKGLEWVSGISWSNNNIGYADSVKGRFTISRDNAKNSLYLQMNSLRPEDTAFYYCAKSGIFDSWGQGTLVTVSS
VL: EIVMTQSPATLSVSPGERATLSCRASQSVSRDLAWYQQKPGQAPRLLIHGASTRATGIPARFSGSGSGAEFTLIISSLQSEDFAVYYCQQYNNWPLTFGGGTKVEIK
notes: also called H2M6967N
